The record followed here is patent publication US8163873.

Experiment [1] addresses PHF-tau (abnormally phosphorylated human tau, 64 and 68 kDa forms, from Alzheimer brain) (human) (UniProt P10636). Put plainly: sandwich ELISA, PHF-tau diluted 1/2000, fixed concentration of AT8. On the technique in general: In an ELISA, binding on a coated surface is turned into a signal by an enzyme label.
Experiment [2] addresses purified abnormally phosphorylated tau, mixed with affinity-purified normal tau (human) (UniProt P10636). Put plainly: competition ELISA on captured tau mixture; unlabeled AT8 at 1 µg/ml, competitor biotinylated AT8 (its signal is read).
Experiment [3] addresses PHF-tau (abnormally phosphorylated human tau, 64 and 68 kDa forms, from Alzheimer brain) (human) (UniProt P10636). Kind of experiment: sandwich ELISA, PHF-tau diluted 1/20, fixed concentration of AT8.
Experiment [4] addresses purified abnormally phosphorylated tau, mixed with affinity-purified normal tau (human) (UniProt P10636). Put plainly: competition ELISA on captured tau mixture; unlabeled AT8 at 111 ng/ml, competitor biotinylated BT2 (its signal is read).
Experiment [5] shares this target. Put plainly: competition ELISA on captured tau mixture; unlabeled AT8 at 9 µg/ml, competitor biotinylated BT2 (its signal is read).
Experiment [6] has the same target. Kind of experiment: competition ELISA on captured tau mixture; unlabeled AT8 at 333 ng/ml, competitor biotinylated BT2 (its signal is read).
Experiment [7] has as its target affinity-purified normal human tau (human) (UniProt P10636). Kind of experiment: sandwich ELISA, normal tau at 1 µg/ml, fixed concentration of AT8.
The target of experiment [8] is purified abnormally phosphorylated tau, mixed with affinity-purified normal tau (human) (UniProt P10636). Put plainly: competition ELISA on captured tau mixture; unlabeled AT8 at 111 ng/ml, competitor biotinylated AT8 (its signal is read).
The target is the same in experiment [9]. Put plainly: competition ELISA on captured tau mixture; unlabeled AT8 at 1 µg/ml, competitor biotinylated BT2 (its signal is read).
Experiment [10] shares this target. Put plainly: competition ELISA on captured tau mixture; signal of biotinylated AT8 with casein control, no competing antibody (row 37 ng/ml).
For experiment [11] the target is unchanged. Put plainly: competition ELISA on captured tau mixture; unlabeled AT8 at 37 ng/ml, competitor biotinylated BT2 (its signal is read).
The target in experiment [12] is PHF-tau (abnormally phosphorylated human tau, 64 and 68 kDa forms, from Alzheimer brain) (human) (UniProt P10636). Put plainly: sandwich ELISA, PHF-tau diluted 1/200, fixed concentration of AT8.
The target of experiment [13] is purified abnormally phosphorylated tau, mixed with affinity-purified normal tau (human) (UniProt P10636). Kind of experiment: competition ELISA on captured tau mixture; signal of biotinylated AT8 with casein control, no competing antibody (row 1 µg/ml).
For experiment [14] the target is unchanged. Kind of experiment: competition ELISA on captured tau mixture; signal of biotinylated AT8 with casein control, no competing antibody (row 3 µg/ml).
Experiment [15] has the same target. Kind of experiment: competition ELISA on captured tau mixture; unlabeled AT8 at 9 µg/ml, competitor biotinylated AT8 (its signal is read).
Experiment [16] has the same target. Put plainly: competition ELISA on captured tau mixture; unlabeled AT8 at 333 ng/ml, competitor biotinylated AT8 (its signal is read).
For experiment [17] the target is unchanged. Put plainly: competition ELISA on captured tau mixture; unlabeled AT8 at 3 µg/ml, competitor biotinylated AT8 (its signal is read).
For experiment [18] the target is unchanged. Put plainly: competition ELISA on captured tau mixture; unlabeled AT8 at 37 ng/ml, competitor biotinylated AT8 (its signal is read).
For experiment [19] the target is unchanged. Put plainly: competition ELISA on captured tau mixture; signal of biotinylated AT8 with casein control, no competing antibody (row 333 ng/ml).
Experiment [20] shares this target. Kind of experiment: competition ELISA on captured tau mixture; signal of biotinylated AT8 with casein control, no competing antibody (row 9 µg/ml).
Experiment [21] has the same target. Kind of experiment: competition ELISA on captured tau mixture; signal of biotinylated AT8 with casein control, no competing antibody (row 111 ng/ml).
Experiment [22] has as its target affinity-purified normal human tau (human) (UniProt P10636). Put plainly: sandwich ELISA, normal tau at 100 ng/ml, fixed concentration of AT8.
Experiment [23] has the same target. Put plainly: sandwich ELISA, normal tau at 10 ng/ml, fixed concentration of AT8.
Experiment [24] addresses purified abnormally phosphorylated tau, mixed with affinity-purified normal tau (human) (UniProt P10636). Kind of experiment: competition ELISA on captured tau mixture; unlabeled AT8 at 3 µg/ml, competitor biotinylated BT2 (its signal is read).
Experiment [25] has the same target. Kind of experiment: competition ELISA on captured tau mixture; signal of biotinylated BT2 with casein control, no competing antibody (row 333 ng/ml).
Experiment [26] shares this target. Kind of experiment: competition ELISA on captured tau mixture; signal of biotinylated BT2 with casein control, no competing antibody (row 9 µg/ml).
For experiment [27] the target is unchanged. Put plainly: competition ELISA on captured tau mixture; unlabeled BT2 at 1 µg/ml, competitor biotinylated AT8 (its signal is read).
The target is the same in experiment [28]. Kind of experiment: competition ELISA on captured tau mixture; unlabeled BT2 at 37 ng/ml, competitor biotinylated AT8 (its signal is read).
Experiment [29] shares this target. Kind of experiment: competition ELISA on captured tau mixture; unlabeled BT2 at 333 ng/ml, competitor biotinylated BT2 (its signal is read).
The target is the same in experiment [30]. Put plainly: competition ELISA on captured tau mixture; signal of biotinylated BT2 with casein control, no competing antibody (row 111 ng/ml).
The target is the same in experiment [31]. Kind of experiment: competition ELISA on captured tau mixture; signal of biotinylated BT2 with casein control, no competing antibody (row 37 ng/ml).
Experiment [32] shares this target. Kind of experiment: competition ELISA on captured tau mixture; unlabeled BT2 at 1 µg/ml, competitor biotinylated BT2 (its signal is read).
Experiment [33] has the same target. Kind of experiment: competition ELISA on captured tau mixture; unlabeled BT2 at 3 µg/ml, competitor biotinylated AT8 (its signal is read).
The target is the same in experiment [34]. Put plainly: competition ELISA on captured tau mixture; unlabeled BT2 at 111 ng/ml, competitor biotinylated BT2 (its signal is read).
Experiment [35] shares this target. Put plainly: competition ELISA on captured tau mixture; unlabeled BT2 at 111 ng/ml, competitor biotinylated AT8 (its signal is read).
For experiment [36] the target is unchanged. Kind of experiment: competition ELISA on captured tau mixture; signal of biotinylated BT2 with casein control, no competing antibody (row 1 µg/ml).
For experiment [37] the target is unchanged. Put plainly: competition ELISA on captured tau mixture; unlabeled BT2 at 37 ng/ml, competitor biotinylated BT2 (its signal is read).
The target is the same in experiment [38]. Put plainly: competition ELISA on captured tau mixture; unlabeled BT2 at 9 µg/ml, competitor biotinylated BT2 (its signal is read).
Experiment [39] has the same target. Kind of experiment: competition ELISA on captured tau mixture; signal of biotinylated BT2 with casein control, no competing antibody (row 3 µg/ml).
The target is the same in experiment [40]. Put plainly: competition ELISA on captured tau mixture; unlabeled BT2 at 333 ng/ml, competitor biotinylated AT8 (its signal is read).
Experiment [41] has the same target. Kind of experiment: competition ELISA on captured tau mixture; unlabeled BT2 at 9 µg/ml, competitor biotinylated AT8 (its signal is read).
Experiment [42] has the same target. Kind of experiment: competition ELISA on captured tau mixture; unlabeled BT2 at 3 µg/ml, competitor biotinylated BT2 (its signal is read).

On to monoclonal antibody AT8, for which the A150 nm in experiment [1] is 0.565 A150 nm; in [3], 1.46 A150 nm; in experiment [7], 0.021 A150 nm; in [12], 1.18 A150 nm; in experiment [22], 0.005 A150 nm; in experiment [23], 0.001 A150 nm. The absorbance at 450 nm in experiment [2] is 0.059 A450; in [4], 0.381 A450; in [5], 0.369 A450; in [6], 0.369 A450; in [8], 0.155 A450; in [9] it was 0.368 A450. Also, the absorbance at 450 nm in [10] was 0.568 A450; in experiment [11] it was 0.36 A450; in experiment [13], 0.548 A450; in experiment [14] it was 0.573 A450; in [15], 0.056 A450; in experiment [16], 0.093 A450. The absorbance at 450 nm was determined as 0.054 A450 in experiment [17]; 0.282 A450 in experiment [18]; 0.564 A450 in [19]; 0.578 A450 in [20]; 0.576 A450 in experiment [21]; 0.375 A450 in experiment [24].
In the case of monoclonal antibody BT2, the absorbance at 450 nm in [25] was 0.381 A450; in experiment [26], 0.369 A450; in experiment [27] it was 0.55 A450; in experiment [28] it was 0.549 A450; in [29] it was 0.179 A450; in experiment [30] it was 0.385 A450. The absorbance at 450 nm in experiment [31] was 0.395 A450; in experiment [32] it was 0.122 A450; in [33], 0.557 A450; in [34] it was 0.245 A450; in experiment [35], 0.573 A450; in experiment [36], 0.375 A450. Also, the absorbance at 450 nm in experiment [37] was determined as 0.318 A450; in [38] it was 0.071 A450; in experiment [39], 0.39 A450; in experiment [40], 0.556 A450; in [41] it was 0.548 A450; in experiment [42], 0.088 A450.
